From patent publication US20260148804A1 (NANJING GENSCRIPT BIOTECH, published 2026)

Target: T1, recombinant TNFRSF9 protein (Homo sapiens (Human), UniProt Q07011 24-186)
T1 construct: also called 4-1BB; antigen
Assay: indirect ELISA, plate coated with 0.5 ug/ml recombinant TNFRSF9 protein, antibody titrated 3-fold from 1 ug/ml
Protocol: The antibody affinity detection method was an enzyme-linked immunosorbent assay (ELISA) based on an indirect method. Indirect ELISA was used for evaluating the ability of the purified antibody to bind the antigen TNFRSF9 protein. The specific steps were as follows: the ELISA plate was coated with 0.5 μg/ml recombinant TNFRSF9 protein in PBS at 100 μl/well at 4° C. overnight. The plate was washed with PBS-T (0.05% Tween) and blocked with 250 μl/well of PBST containing 1% BSA at 37° C. for 2 hours. Subsequently, the blocking solution was discarded, and 100 μl of the 1 μg/ml purified antibody was added to the first well and 3-fold diluted in a gradient to prepare a total of 11 serial test concentrations, and additionally a blank well was prepared. The plate was then incubated at 37° C. for 1 hour. […] The plate was washed four times with PBST, a TMB color development solution (GenScript) was then added, and the plate was incubated in the dark at 25° C. for 15 minutes. […] The plate was read at 450 nm using a microplate reader.

EC50: 2.6 ng/mL
B1: 81E11WTH (antibody, V domains shown)
VH: QSVKESEGGLFKPTDTLTLACTVSGFSLSYNAITWVRQAPGNGLEWIGVINYDGTTVYASWAKSRSTITRNTNLNTVTLKMTSLTAADTATYFCARNFNIWGPGTLVTVSS
VL: AAVLTQTPSPVSVTVGGTVTINCQASQSVDNNNYLAWFQQKPGQPPKQLIYSASTLASGVSSRFKGSGSGTQFTLTISGVQCDDAATYYCLGEFSASSGDWNAFGGGTEVVVK
notes: also called control 81E11WTH
